From patent publication US20240410900A1

How the values were obtained:
[1] = biological target: targeted IgG-IL2 (interleukin-2 fused to the C-terminus of a heavy chain of an antibody specifically binding to a therapeutic target); experiment: bridging ELISA, drug-Bi and drug-Dig, human pooled serum, binder 63 ng/mL assay / 1250 ng/mL matrix
[2] = biological target: non-targeted IgG-IL2 (interleukin-2 fused to the C-terminus of a heavy chain of a germline antibody, which is not binding to a target); experiment: as above
[3] = biological target: TCB (T-cell bispecific format) drug antibody; experiment: as above
[4] = biological target: non-targeted IgG-IL2 (interleukin-2 fused to the C-terminus of a heavy chain of a germline antibody, which is not binding to a target); experiment: bridging ELISA, IgG-IL2-Bi and -Dig, binder 0.5 ng/mL assay / 10 ng/mL matrix
[5] = biological target: drug antibody (capture and tracer of the bridging immunoassay of FIGS. 2, 7 and 8; not named); experiment: bridging immunoassay, drug antibody as capture and tracer, binder at 1000 ng/ml
[6] = biological target: targeted IgG-IL2 (interleukin-2 fused to the C-terminus of a heavy chain of an antibody specifically binding to a therapeutic target); experiment: bridging ELISA, drug-Bi and drug-Dig, human pooled serum, binder 0.03 ng/mL assay / 0.6 ng/mL matrix
[7] = biological target: non-targeted IgG-IL2 (interleukin-2 fused to the C-terminus of a heavy chain of a germline antibody, which is not binding to a target); experiment: as above
[8] = biological target: TCB (T-cell bispecific format) drug antibody; experiment: as above
[9] = biological target: targeted IgG-IL2 (interleukin-2 fused to the C-terminus of a heavy chain of an antibody specifically binding to a therapeutic target); experiment: bridging ELISA, drug-Bi and drug-Dig, human pooled serum, binder 500 ng/mL assay / 10000 ng/mL matrix
[10] = biological target: non-targeted IgG-IL2 (interleukin-2 fused to the C-terminus of a heavy chain of a germline antibody, which is not binding to a target); experiment: as above
[11] = biological target: TCB (T-cell bispecific format) drug antibody; experiment: as above
[12] = biological target: non-targeted IgG-IL2 (interleukin-2 fused to the C-terminus of a heavy chain of a germline antibody, which is not binding to a target); experiment: bridging ELISA, IgG-IL2-Bi and -Dig, binder 63 ng/mL assay / 1250 ng/mL matrix
[13] = biological target: non-targeted IgG-IL2 (interleukin-2 fused to the C-terminus of a heavy chain of a germline antibody, which is not binding to a target); experiment: bridging ELISA, IgG-IL2-Bi and -Dig, binder 0.03 ng/mL assay / 0.6 ng/mL matrix
[14] = biological target: non-targeted IgG-IL2 (interleukin-2 fused to the C-terminus of a heavy chain of a germline antibody, which is not binding to a target); experiment: bridging ELISA, IgG-IL2-Bi and -Dig, binder 500 ng/mL assay / 10000 ng/mL matrix
[15] = biological target: targeted IgG-IL2 (interleukin-2 fused to the C-terminus of a heavy chain of an antibody specifically binding to a therapeutic target); experiment: bridging ELISA, drug-Bi and drug-Dig, human pooled serum, binder 0.12 ng/mL assay / 2.4 ng/mL matrix
[16] = biological target: non-targeted IgG-IL2 (interleukin-2 fused to the C-terminus of a heavy chain of a germline antibody, which is not binding to a target); experiment: as above
[17] = biological target: TCB (T-cell bispecific format) drug antibody; experiment: as above
[18] = biological target: targeted IgG-IL2 (interleukin-2 fused to the C-terminus of a heavy chain of an antibody specifically binding to a therapeutic target); experiment: bridging ELISA, drug-Bi and drug-Dig, human pooled serum, binder 31 ng/mL assay / 625 ng/mL matrix
[19] = biological target: non-targeted IgG-IL2 (interleukin-2 fused to the C-terminus of a heavy chain of a germline antibody, which is not binding to a target); experiment: as above
[20] = biological target: TCB (T-cell bispecific format) drug antibody; experiment: as above
[21] = biological target: targeted IgG-IL2 (interleukin-2 fused to the C-terminus of a heavy chain of an antibody specifically binding to a therapeutic target); experiment: bridging ELISA, drug-Bi and drug-Dig, human pooled serum, binder 0.06 ng/mL assay / 1.2 ng/mL matrix
[22] = biological target: non-targeted IgG-IL2 (interleukin-2 fused to the C-terminus of a heavy chain of a germline antibody, which is not binding to a target); experiment: as above
[23] = biological target: TCB (T-cell bispecific format) drug antibody; experiment: as above
[24] = biological target: targeted IgG-IL2 (interleukin-2 fused to the C-terminus of a heavy chain of an antibody specifically binding to a therapeutic target); experiment: bridging ELISA, drug-Bi and drug-Dig, human pooled serum, binder 125 ng/mL assay / 2500 ng/mL matrix
[25] = biological target: non-targeted IgG-IL2 (interleukin-2 fused to the C-terminus of a heavy chain of a germline antibody, which is not binding to a target); experiment: as above
[26] = biological target: TCB (T-cell bispecific format) drug antibody; experiment: as above

B1: multivalent anti-PG antibody derived from clone 1.7.24 (mixed Pool 2, 3, 4) (antibody, V domains shown)
VH: EVKLLESGGGLVQPGGSLKLSCAASGFDFSRYWMNWVRQAPGKGLEWIGEITPDSSTINYTPSLKDKFIISRDNAKNTLYLQMIKVRSEDTALYYCVRPYDYGAWFASWGQGTLVTVSA
VL: QAVVTQESALTTSPGETVTLTCRSSTGAVTTSNYANWVQEKPDHLFTGLIGGTNKRAPGVPARFSGSLIGDKAALTITGAQTEDEAIYFCALWYSNHWVFGGGTKLTVL
modifications: lysine amines derivatised with SATP or MHS and cross-linked (sites not given)
[1]
  signal [AU]: 2.63 AU
[2]
  signal [AU]: 0.77 AU
[3]
  signal [AU]: 2.86 AU
[4]
  signal [AU]: 0.0825 AU
[5]
  signal-to-noise ratio (S/N): 83.6
[6]
  signal [AU]: 0.04 AU
[7]
  signal [AU]: 0.0425 AU
[8]
  signal [AU]: 0.0455 AU
[9]
  signal [AU]: 3.01 AU
[10]
  signal [AU]: 2.81 AU
[11]
  signal [AU]: 2.99 AU
[12]
  signal [AU]: 2.85 AU
[13]
  signal [AU]: 0.0525 AU
[14]
  signal [AU]: 3.09 AU
[15]
  signal [AU]: 0.044 AU
[16]
  signal [AU]: 0.0395 AU
[17]
  signal [AU]: 0.0555 AU
[18]
  signal [AU]: 1.65 AU
[19]
  signal [AU]: 0.408 AU
[20]
  signal [AU]: 2.09 AU
[21]
  signal [AU]: 0.042 AU
[22]
  signal [AU]: 0.042 AU
[23]
  signal [AU]: 0.049 AU
[24]
  signal [AU]: 3.05 AU
[25]
  signal [AU]: 1.4 AU
[26]
  signal [AU]: 3.05 AU
